This note sets out measurements from PMC2646901, “Characterisation of receptor binding by the chemotaxis inhibitory protein of Staphylococcus aureus and the effects of the host immune response” (Molecular Immunology, 2007).

B1: human C5aR peptide of the N-terminal extracellular region M1-D37 with additional -APAPAC on the C-terminus (hC5aR_(1–37)) (peptide)
peptide: MDSFNYTTPDYGHYDDKDTLDLNTPVDKTSNTLRVPDAPAPAC
notes: human C5a receptor, N-terminal extracellular region, residues M1-D37; also called human C5aR_(1–37) peptide; source: gift from Dr M. Barker, Division of Genomic Medicine, Sheffield
B2: human C5a receptor (C5aR) (receptor)
chain: MDSFNYTTPDYGHYDDKDTLDLNTPVDKTSNTLRVPDILALVIFAVVFLVGVLGNALVVWVTAFEAKRTINAIWFLNLAVADFLSCLALPILFTSIVQHHHWPFGGAACSILPSLILLNMYASILLLATISADRFLLVFKPIWCQNFRGAGLAWIACAVAWGLALLLTIPSFLYRVVREEYFPPKVLCGVDYSHDKRRERAVAIVRLVLGFLWPLLTLTICYTFILLRTWSRRATRSTKTLKVVVAVVASFFIFWLPYQVTGIMMSFLEPSSPTFLLLKKLDSLCVSFAYINCCINPIIYVVAGQGFQGRLRKSLPSLLRNVLTEESVVRESKSFTRSTVDTMAQKTQAV
notes: human C5a receptor (C5aR), expressed on transfected RBL-2H3 or CHO cells; also called hC5aR; RBL-C5aR; source: RBL-2H3 or CHO cells, transfected by electroporation, on cells
B3: recombinant human C5a protein (rh-C5a) (ligand)
chain: TLQKKIEEIAAKYKHSVVKKCCYDGACVNNDETCEQRAARISLGPRCIKAFTECCVVASQLRANISHKDMQLGR
notes: source: expressed and purified according to a previously described protocol (Paczkowski et al., 1999)

Assay [1] addresses T1, recombinant chemotaxis inhibitory protein of Staphylococcus aureus, residues 28-149 (rCHIPS_(28–149)) (Staphylococcus aureus N315 (MRSA), UniProt A6QIG7 28-149).
T1 construct: three N-terminal residues, GlyAlaMet, left from the vector after TEV cleavage; Uniformly 15N-labelled (isotope only) in the NMR titrations; unlabelled in ITC and in the cell assays; also called unlabelled CHIPS; ^15N-labelled CHIPS_(28–149); source: E. coli BL21 (DE3), purified (glutathione sepharose 4B, TEV cleavage, Mono S); not shown: GST, N-terminal, cleaved
The assay can be described thus: NMR titration; 1H-15N HSQC of 0.7 mM 15N-CHIPS(28-149), unlabelled lyophilized ligand added to ligand:CHIPS ratios 0, 1:2, 3:4, 1:1, 5:4; 25 °C, 100 mM phosphate pH 7.0, 200 mM NaCl, 1 mM DTT, 0.5 mM EDTA; Kd from fast-exchange shift curves, averaged over residues. As to conditions: both partners purified.

The target in assay [2] is T1, recombinant chemotaxis inhibitory …. The assay can be described thus: ITC; CHIPS(28-149) (0.2 mM) titrated with the peptides; non-linear regression; data not shown. As to conditions: both partners purified. Background: ITC needs no label: the signal is the heat of the interaction.
The target in assay [3] is T2, FITC-labelled recombinant CHIPS_(28–149) (Staphylococcus aureus N315 (MRSA), UniProt A6QIG7 28-149, FITC label (site not stated)).
T2 construct: three N-terminal residues, GlyAlaMet, left from the vector after TEV cleavage; The discussion once calls the labelled protein of the serum assay rCHIPS_(26–141); results and methods say 28-149; also called FITC-rCHIPS_(28–149); FITC-CHIPS_(28–149); source: E. coli BL21 (DE3), purified (glutathione sepharose 4B, TEV cleavage, Mono S), FITC-labelled; not shown: GST, N-terminal, cleaved
As to the kind of experiment: flow cytometry on cells; kinetics: 300 nM FITC-CHIPS(28-149) added to C5aR-transfected RBL cells, dissociation started with 14 μM unlabelled CHIPS(28-149); Kd from kobs and koff, five experiments. As to conditions: one partner purified. Background: In flow cytometry, cells or beads pass a laser one at a time.

The target in assay [4] is B2. As to the kind of experiment: flow cytometry on cells; competition: RBL cells transfected with human C5aR pre-treated with unlabelled CHIPS or human C5a, then 210 nM FITC-rCHIPS(28-149); cell-associated fluorescence. As to conditions: one partner purified.

As a reminder, the Kd is a measure of binding affinity in units of concentration. By stoichiometry N is commonly meant a count of units in the complex or per binding partner. Take B1: the Kd in assay [1] amounted to 8.25 µM. In assay [2], the Ka worked out at 25000 M⁻¹, the Kd was around 40 µM and the “stoichiometry N” value worked out at 1.4 ± 0.8.

For B2, the Kd in assay [3] amounted to 0.00722 ± 0.00666 µM.

For orientation: IC50 means the concentration that gives 50% inhibition. On to B3, for which, in assay [4], the IC50 is around 0.25 µM.
